One assay concerns the target T1, recombinant mouse MFAP4 (mouse, UniProt Q9D1H9 23-257).
T1 construct: mature; The expression plasmid is pcDNA5/FRT/V5-His TOPO TA; also called murine MFAP4; mouse serum MFAP4
T1 sequence (looked up): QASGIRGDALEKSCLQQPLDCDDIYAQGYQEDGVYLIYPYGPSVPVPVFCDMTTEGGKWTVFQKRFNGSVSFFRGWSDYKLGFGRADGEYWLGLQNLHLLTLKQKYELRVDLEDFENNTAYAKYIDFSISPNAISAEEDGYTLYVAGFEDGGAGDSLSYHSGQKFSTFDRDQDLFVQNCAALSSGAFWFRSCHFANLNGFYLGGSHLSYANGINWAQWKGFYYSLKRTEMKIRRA
The experiment in a line: direct ELISA, biotinylated antibody on coated recombinant mouse MFAP4, streptavidin-HRP. The procedure:
(§1) 96-well plates (Nunc-MaxiSorp) (Nunc™) were coated with 0.5 μg recombinant mouse MFAP4, recombinant human MFAP4 and recombinant human MFAP4 with the RGD-sequence mutated to AAA in PBS O.N at 4° C. Coating was followed by washing and then blocking in TBS/Tw O.N at 4° C. Blocking was followed by addition of biotinylated antibodies diluted 2-fold from an initial concentration of 100 ng/ml. The plates were then incubated for 2 hours at R.T. The plates were washed three times in TBS/Tw and incubated for 20 minutes with Strepavidin Horseradish Peroxidase (HRP) conjugate (Invitrogen) diluted 1:2000 in TBS/Tw. After final three washes, the amount of bound enzyme was estimated by adding OPD (0.8 mg/ml, Kementec, Taastrup, Denmark) dissolved in substrate buffer (0.03% freshly prepared H₂O₂) and allowed to react for 15 minutes in the dark at RT. Colour development was stopped by the addition of 100 μl 1 M H₂SO₄, and the plates were read at OD₄₉₂ nm with OD₆₀₀ nm as reference.

The target in assay [1] is T2, recombinant human MFAP4 (human, UniProt P55083 22-255).
T2 construct: mature; also called rhMFAP4; hrMFAP4
T2 sequence (looked up): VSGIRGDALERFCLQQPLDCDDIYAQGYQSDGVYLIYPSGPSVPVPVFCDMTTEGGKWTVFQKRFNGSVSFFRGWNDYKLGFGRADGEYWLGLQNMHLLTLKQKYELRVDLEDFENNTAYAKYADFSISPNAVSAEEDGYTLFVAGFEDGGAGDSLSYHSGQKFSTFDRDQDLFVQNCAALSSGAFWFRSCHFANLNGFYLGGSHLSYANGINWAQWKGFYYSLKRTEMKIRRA
The experiment in a line: competition ELISA on immobilized recombinant human MFAP4; competitor: biotinylated HG HYB 7-5 at 0.5 µg/ml. The procedure: (§2) Biotinylated A) HG HYB 7-5 (biotinHYB7-5), B) hAS0326 ([…]) and C) mAS0326 (bmAS0326) at a fixed concentration of 0.5 μg/ml were mixed with unlabelled IgG isotype control, HG HYB 7-18 (HYB7-18), HG HYB 7-5 (HYB7-5), hAS0326 and mAS0326 in a 2-fold dilution from 20 μg/ml. […] Only HG Hyb 7-5 was capable of inhibiting the HG HYB 7-5 interaction with target. In contrast, mAS0326 was capable of inhibiting hAS0326 binding to target and vice versa.
(§3) 96-well plates (Nunc-MaxiSorp) were coated with 0.5 μg recombinant human MFAP4 in PBS O.N at 4° C. followed by washing and then blocking in TBS/Tw O.N at 4° C. Biotinylated Mab (0.5 μg/ml) and unlabeled MAbs (diluted 2-fold from 20 μg/ml to 156 ng/ml) were premixed in a separate microtiterplate in TBS/Tw and then added to the MFAP4 coated microtiter plate. The plates were following incubated for 2 hours at R.T. The plates were washed three times in TBS/Tw and incubated for 20 min with Strepavidin Horseradish Peroxidase (HRP) conjugate (Invitrogen) diluted 1:2000 in TBS/Tw. […] Colour development was stopped by the addition of 100 μl 1 M H₂SO₄, and the plates were read at OD₄₉₂ nm with OD₆₀₀ nm as reference.
A general note: ELISA stands for enzyme-linked immunosorbent assay.

Assay [2] concerns the target T3, recombinant human MFAP4 with RGD integrin binding motif mutated to AAA (human, UniProt P55083 22-255).
T3 construct: mature; also called human MFAP4 RGD-AAA mutation
T3 sequence (looked up): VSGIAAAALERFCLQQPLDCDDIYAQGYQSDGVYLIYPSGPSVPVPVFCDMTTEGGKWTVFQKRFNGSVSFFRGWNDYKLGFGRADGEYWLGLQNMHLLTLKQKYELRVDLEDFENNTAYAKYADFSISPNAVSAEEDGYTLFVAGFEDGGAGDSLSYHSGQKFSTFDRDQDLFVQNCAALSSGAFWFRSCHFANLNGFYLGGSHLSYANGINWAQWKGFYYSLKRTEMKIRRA
Put plainly: direct ELISA, biotinylated antibody on coated recombinant human MFAP4 with RGD mutated to AAA, streptavidin-HRP. The procedure:
as §1

For assay [3], the target named is T2, recombinant human MFAP4. The experiment in a line: SPR, Biacore T200. In general terms: SPR reads the build-up and loss of mass on a sensor chip optically.
The target in assay [4] is T2, recombinant human MFAP4. The experiment in a line: competition ELISA on immobilized recombinant human MFAP4; competitor: biotinylated hAS0326 at 0.5 µg/ml. The procedure:
as §2, §3

The target of assay [5] is T2, recombinant human MFAP4. The experiment in a line: competition ELISA on immobilized recombinant human MFAP4; competitor: biotinylated mAS0326 at 0.5 µg/ml. The method, then:
as §2, §3

B1: HG HYB 7-5 (antibody, V domains shown)
VH: EVQLQQSGPELVKPGASVKLSCKTSGYTFTSYDMNWVKQRPGQGLEWIGWIFPRDGSTKFNEKFKGKATLTVDTSSTTAYMELHSLTSEDSAVYFCARAEIFFDYGFDYWGQGTTLTVSS
VL: DIVMTQSTALMAASPGEKVTITCSVSSSISSSNLHWYQQKSETSPKSWIYGTSNLASGVPGRFSGSGSGTSYSLTISSVEAEDAATYYCQQWSSYPLTFGGGTKLEIK
notes: also called biotinHYB7-5
In the case of B1, the binding result (with recombinant mouse MFAP4; in assay [2]) was “no binding (tested: 100 ng/ml)” throughout. Moreover, the “IC50 (read off the curve)” value with recombinant human MFAP4 [1] was about 0.8 µg/mL.

B2: mAS0326 (antibody, V domains shown)
VH: QVQLQQPGADLVKPGTSVKLSCKASGFTFTSYWMHWVKQRPGQGLEWIGVIHPNSGNTKYNEKFRSEATLTVDKSSNTAYIQLSSLTSEDSAVYYCAREMWNYGNSWYFDVWGTGTTVTVSS
VL: DVQIIQSPSYLAASPGETITINCRASKSISKYLAWYQERPGKTNKLLIYSGSTLQSGIPSRFSGSGSGTDFTLTISSLEPEDFAMYYCQQHNEYPFTFGAGTKLELK
notes: Murine hybridoma monoclonal antibody raised against human recombinant MFAP4; also called biotinmAS0326; bmAS0326
As to B2, the dissociation constant (Kd) (usually the constant that tells how readily two partners part at equilibrium) in the assay with recombinant human MFAP4 [3] was determined as 0.14 nM. The binding result with recombinant mouse MFAP4 is recorded as “binds”. For the same molecule, the “IC50 (read off the curve)” value with recombinant human MFAP4 [4] and with recombinant human MFAP4 [5] was about 0.9 µg/mL throughout.

B3: Chimeric antibody (mAS0326 with human Fc, CHO expression) (antibody, V domains shown)
VH: QVQLQQPGADLVKPGTSVKLSCKASGFTFTSYWMHWVKQRPGQGLEWIGVIHPNSGNTKYNEKFRSEATLTVDKSSNTAYIQLSSLTSEDSAVYYCAREMWNYGNSWYFDVWGTGTTVTVSS
VL: DVQIIQSPSYLAASPGETITINCRASKSISKYLAWYQERPGKTNKLLIYSGSTLQSGIPSRFSGSGSGTDFTLTISSLEPEDFAMYYCQQHNEYPFTFGAGTKLELK
Turning to B3, in the assay with recombinant human MFAP4 [3], the dissociation constant Kd is 0.504 nM.

Values taken from patent US20230047179A1 (SYDDANSK UNIVERSITET, published 2023).
